We go through four molecules from paper PMC4985284, “Monochromatic multicomponent fluorescence sedimentation velocity for the study of high-affinity protein interactions” (eLife, 2016).

B1: Dylight488-labeled GluA2-ATD (amino-terminal domain of the AMPA receptor GluA2) (domain or fragment, UniProt P19491 22-404, looked up)
chain: VSSNSIQIGGLFPRGADQEYSAFRVGMVQFSTSEFRLTPHIDNLEVANSFAVTNAFCSQFSRGVYAIFGFYDKKSVNTITSFCGTLHVSFITPSFPTDGTHPFVIQMRPDLKGALLSLIEYYQWDKFAYLYDSDRGLSTLQAVLDSAAEKKWQVTAINVGNINNDKKDETYRSLFQDLELKKERRVILDCERDKVNDIVDQVITIGKHVKGYHYIIANLGFTDGDLLKIQFGGANVSGFQIVDYDDSLVSKFIERWSTLEEKEYPGAHTATIKYTSALTYDAVQVMTEAFRNLRKQRIEISRRGNAGDCLANPAVPWGQGVEIERALKQVQVEGLSGNIKFDQNGKRINYTINIMELKTNGPRKIGYWSEVDKMVVTLTELPS
modifications: Dylight488 (N-hydroxysuccinimide ester-activated dye); native complex glycosylation
notes: signal peptide in the construct; secreted; Cut with thrombin after IMAC; also called DL488-GluA2; source: HEK293T, transient transfection, secreted, purified (HiTrap NTA, thrombin, HiTrap Q); labelled with Dylight488 and separated from free dye on Superdex 75; not shown: His8, C-terminal, cleaved
B2: fusion protein of GluA3-ATD and rsEGFP2 (rsEGFP2-GluA3) (domain or fragment, UniProt P19492 23-408, looked up)
chain: GFPNTISIGGLFMRNTVQEHSAFRFAVQLYNTNQNTTEKPFHLNYHVDHLDSSNSFSVTNAFCSQFSRGVYAIFGFYDQMSMNTLTSFCGALHTSFVTPSFPTDADVQFVIQMRPALKGAILSLLSYYKWEKFVYLYDTERGFSVLQAIMEAAVQNNWQVTARSVGNIKDVQEFRRIIEEMDRRQEKRYLIDCEVERINTILEQVVILGKHSRGYHYMLANLGFTDILLERVMHGGANITGFQIVNNENPMVQQFIQRWVRLDEREFPEAKNAPLKYTSALTHDAILVIAEAFRYLRRQRVDVSRRGSAGDCLANPAVPWSQGIDIERALKMVQVQGMTGNIQFDTYGRRTNYTIDVYEMKVSGSRKAGYWNEYERFVPFSDQQIS
modifications: native complex glycosylation
notes: GluA3 AMPA receptor amino-terminal domain, residues Gly23-Ser408; The fluorescent protein is the detection tag and is not written as a part; it is joined by SGSG (before) and SGS (after); The methods call the fluorescent protein rsEGFP, the results rsEGFP2; Cut with thrombin; also called rsEGFP-GluA3 ATD fusion construct; source: HEK293T, transient transfection, secreted, purified (HiTrap NTA, …)

Values joined by “and” are separate entries in the source; they are usually repeats but may differ in a detail not shown here. Identical values can stand only once. Like-named read-outs stand apart in the source and are kept apart here.

The target of series [1] is GluA2 ATD (Rattus norvegicus) (UniProt P19491). The note with it: cited from earlier work.
Series [2] has the same target. Conditions: cited from earlier work. This is another data set of the same source.
Series [3] has as its target GluA3 ATD (Rattus norvegicus) (UniProt P19492). Conditions: cited from earlier work.
For series [4] the target is unchanged. The note with it: cited from earlier work. The source holds these as a separate data set.
The target in series [5] is B2. Briefly: AUC; FRAP-like FDS-SV, equimolar mixtures of rsEGFP2-GluA3 and DL488-GluA2, 20 min stationary 488 nm exposure at 6.5 cm before scanning, 50,000 rpm, 20°C; component sw isotherm with competitive homo- and hetero-dimerization model. Conditions: both partners purified.
Series [6] concerns the molecule itself. Briefly: AUC; fluorescence-detected sedimentation velocity (FDS-SV), dilution series of DL488-GluA2 from 0.2 nM to 200 nM, 50,000 rpm, 20°C, 488 nm excitation; c(s) and sw isotherm with monomer-dimer model; dimer to monomers; 0.1 mg/ml unlabeled BSA added.
The target of series [7] is B2. Briefly: AUC; MCMC FDS-SV, equimolar dilution series of DL488-GluA2 and rsEGFP2-GluA3 from 0.1-30 nM, 13 mW excitation beam, 50,000 rpm, 20°C; global fit of component sw isotherms with a linked homo- and hetero-dimerization model, K_(d,22) fixed at 27.1 nM. Conditions: both partners purified.
The target in series [8] is B1. Described as above. The note with it: both partners purified.

Turning to GluA2 ATD (from UniProt P19491), the dissociation constant Kd – broadly, a measure of binding affinity in units of concentration – was 1.8 nM in series [1], 20.5 nM in series [2] and 1.3 nM in series [3].

Regarding GluA3 ATD (from UniProt P19492), the Kd in series [4] was 5.6 µM.

B1: the dissociation constant (Kd) was 0.68 nM in series [5]; 24 nM and 27.1 nM in series [6]; 0.32 nM in series [7]. The stoichiometry N (in general, the number of molecules, sites or subunits per partner or assembly) in series [6] was determined as 2.

As to B2, in series [8], the “stoichiometry N” value stood at 1.
